From article PMC5008402 come the findings set out here.

One data set can be described thus: phospho-specific blot. The conditions noted are these: glycan lost; control: WT TAB3.
Data set [1] in a line: Flag IP, pThr404 TAB3 blot. The conditions noted are these: glycan lost; control: WT TAB3, IL-1β treated.

B1: TAK1 binding protein 3 (TAB3): S408A (protein)
parent chain: MAQSSPQLDIQVLHDLRQRFPEIPEGVVSQCMLQNNNNLEACCRALSQESSKYLYMEYHSPDDNRMNRNRLLHINLGIHSPSSYHPGDGAQLNGGRTLVHSSSDGHIDPQHAAGKQLICLVQEPHSAPAVVAATPNYNPFFMNEQNRSAATPPSQPPQQPSSMQTGMNPSAMQGPSPPPPPPSYMHIPRYSTNPITVTVSQNLPSGQTVPRALQILPQIPSNLYGSPGSIYIRQTSQSSSGRQTPQSTPWQSSPQGPVPHYSQRPLPVYPHQQNYQPSQYSPKQQQIPQSAYHSPPPSQCPSPFSSPQHQVQPSQLGHIFMPPSPSTTPPHPYQQGPPSYQKQGSHSVAYLPYTASSLSKGSMKKIEITVEPSQRPGTAINRSPSPISNQPSPRNQHSLYTATTPPSSSPSRGISSQPKPPFSVNPVYITYTQPTGPSCTPSPSPRVIPNPTTVFKITVGRATTENLLNLVDQEERSAAPEPIQPISVIPGSGGEKGSHKYQRSSSSGSDDYAYTQALLLHQRARMERLAKQLKLEKEELERLKSEVNGMEHDLMQRRLRRVSCTTAIPTPEEMTRLRSMNRQLQINVDCTLKEVDLLQSRGNFDPKAMNNFYDNIEPGPVVPPKPSKKDSSDPCTIERKARRISVTSKVQADIHDTQAAAADEHRTGSTQSPRTQPRDEDYEGAPWNCDSCTFLNHPALNRCEQCEMPRYT
Turning to B1, the “other: TAB3 S60 and S506 phosphorylation” value in “phospho-specific blot” is “no change”. Moreover, in data set [1], the “other: TAB3 Thr404 phosphorylation” value is on record as “decreases”.
